Test: Stability by RP-HPLC for peptide quantification
Type: physicochemical
Conditions: lyophilized, 40° C., six-months time point, all three concentrations (FIGS. 6-8)
Excerpt: The stability was also monitored for pre-lyophilization formulations. Stability assays basically include appearance (visual inspection), pH, FLS, peptide fluorescence, and RP-HPLC for peptide quantification.

Q: With “H-Lys-Gln-Ile-Ile-Asn-Met-Trp-Gln-Glu-Val-Gly-Lys-Ala-Met-Tyr-Ala-Lys-Ala-Phe-Ser-Pro-Glu-Val-Ile-Pro-Met-Phe-OH (H-KQIINMWQEVGKAMYAKAFSPEVIPMF-OH; also: acetate salt) [Peptide A, HIV Th/CTL peptide]” as the substance, how does the “potency change at accelerated temperature” value read?
A: Its value is “potency decreases”.

Source: patent publication US20080187554A1, “Process for producing stable HIV Th-CTL peptides” (Wyeth, priority 2005, published 2008)
